# B1: NPF4.6 (Arabidopsis thaliana) (protein)
# chain: MEVEEEVSRWEGYADWRNRAAVKGRHGGMLAASFVLVVEILENLAYLANASNLVLYLREYMHMSPSKSANDVTNFMGTAFLLALLGGFLSDAFFSTFQIFLISASIEFLGLIILTIQARTPSLMPPSCDSPTCEEVSGSKAAMLFVGLYLVALGVGGIKGSLASHGAEQFDESTPKGRKQRSTFFNYFVFCLACGALVAVTFVVWLEDNKGWEWGFGVSTIAIFVSILIFLSGSRFYRNKIPCGSPLTTILKVLLAASVKCCSSGSSSNAVASMSVSPSNHCVSKGKKEVESQGELEKPRQEEALPPRAQLTNSLKVLNGAADEKPVHRLLECTVQQVEDVKIVLKMLPIFACTIMLNCCLAQLSTFSVQQAASMNTKIGSLKIPPASLPIFPVVFIMILAPIYDHLIIPFARKATKTETGVTHLQRIGVGLVLSILAMAVAALVEIKRKGVAKDSGLLDSKETLPVTFLWIALQYLFLGSADLFTLAGLLEYFFTEAPSSMRSLATSLSWASLAMGYYLSSVIVSIVNSITGSSGNTPWLRGKSINRYKLDYFYWLMCVLSAANFLHYLFWAMRYKYRSTGSRS
# notes: full CDS (pDONR207) in pGEM-GWC; cRNA-injected Xenopus oocytes; tag not given
# B2: NPF4.5 (Arabidopsis thaliana) (protein)
# chain: MEVEMHGDVSKWEGYADWRNKAALRGRHGGMLAASFVLAVEILENLAFLANASNLVLYLKNFMHMSLARSSSEVTTFMATAFLLALLGGFLADAFFSTFVIFLISASIEFLGLILLTIQARRPSLMPPPCKSSAALRCEVVGGSKAAFLFVGLYLVSLGIGGIKGSLPSHGAEQFDEGTPKGRKQRSTFFNYYVFCLSCGALVAVTFVVWIEDNKGWEWGFGVSTISIFLSILVFLLGSRFYKNKIPRGSPLTTIFKVLLAASIVSCSSKTSSNHFTSREVQSEHEEKTPSQSLTNSLTCLNKAIEGKTHHIWLECTVQQVEDVKIVLKMLPIFGCTIMLNCCLAQLSTYSVHQAATMNRKIVNFNVPSASLPVFPVVFMLILAPTYDHLIIPFARKVTKSEIGITHLQRIGVGLVLSIVAMAVAALVELKRKQVAREAGLLDSEETLPITFLWIALQYLFLGSADLFTLAGLLEFFFTEAPSSMRSLATSLSWASLALGYYLSSVMVPIVNRVTKSAGQSPWLGEKLNRNRLDLFYWLMCVLSVVNFLHYLFWAKRYKYISTGSIS
# notes: full CDS (ABRC, pENTR223) in pGEM-GWC; cRNA-injected Xenopus oocytes; tag not given
# Substrate: CC1=CC(=O)CC(C)(C)[C@@]1(O)/C=C/C(C)=C\C(=O)O
# Assay: cells, lysate or membranes
# Format: cell-based, Arabidopsis thaliana
# Details: pH 6.0, ND96, 0-5 μM ABA, labelled compound (10% 3H-ABA, 90% cold), apparent Km
row,Protein,Km
1,B1,0.452 ± 0.025 µM
2,B2,0.522 ± 0.041 µM
